Experimental data published in patent US20170327579A1 (ENGMAB, published 2017).

T1: human BCMA on myeloma cells (H929, U266, patient bone marrow myeloma plasma cells) (human, UniProt Q02223 1-184)
T1 sequence (looked up): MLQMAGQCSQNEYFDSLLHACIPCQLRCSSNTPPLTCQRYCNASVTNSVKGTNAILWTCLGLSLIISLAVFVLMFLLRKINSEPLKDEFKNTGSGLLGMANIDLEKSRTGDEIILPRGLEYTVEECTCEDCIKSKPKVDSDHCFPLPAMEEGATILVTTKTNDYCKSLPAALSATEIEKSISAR

B1: pSCHLI333-TCB CLC (bispecific antibody)
heavy 1: not shown
heavy 2: QVQLVQSGAEVKKPGASVKVSCKASGYMFSSFGMSWVRQAPGQGLEWMGWIYPVGQGTWYAQKFQGRVTMTRDTSTSTVYMELSSLRSEDTAVYYCARVSYPPSHFDYWGQGTLVTVSSASTKGPSVFPLAPSSKSTSGGTAALGCLVKDYFPEPVTVSWNSGALTSGVHTFPAVLQSSGLYSLSSVVTVPSSSLGTQTYICNVNHKPSNTKVDKKVEPKSCDKTHTCPPCPAPEAAGGPSVFLFPPKPKDTLMISRTPEVTCVVVDVSHEDPEVKFNWYVDGVEVHNAKTKPREEQYNSTYRVVSVLTVLHQDWLNGKEYKCKVSNKALGAPIEKTISKAKGQPREPQVCTLPPSRDELTKNQVSLSCAVKGFYPSDIAVEWESNGQPENNYKTTPPVLDSDGSFFLVSKLTVDKSRWQQGNVFSCSVMHEALHNHYTQKSLSLSPGK
light: QAVVTQEPSLTVSPGGTVTLTCGSSTGAVTTSNYANWVQEKPGQAFRGLIGGTNKRAPGTPARFSGSLLGGKAALTLSGAQPEDEAEYYCALWYSNLWVFGGGTKLTVLGQPKAAPSVTLFPPSSEELQANKATLVCLISDFYPGAVTVAWKADSSPVKAGVETTTPSKQSNNKYAASSYLSLTPEQWKSHRSYSCQVTHEGSTVEKTVAPTECS
B2: pSCHLI372-TCB CLC (bispecific antibody)
heavy 1: not shown
heavy 2: EVQLVESGGGLVKPGGSLRLSCAASGFTFSNSGMIWVRQAPGKGLEWVGHIRSKTDGGTTDYAAPVKGRFTISRDDSKNTLYLQMNSLKTEDTAVYYCTTGGSGSFDYWGQGTLVTVSSASTKGPSVFPLAPSSKSTSGGTAALGCLVKDYFPEPVTVSWNSGALTSGVHTFPAVLQSSGLYSLSSVVTVPSSSLGTQTYICNVNHKPSNTKVDKKVEPKSCDKTHTCPPCPAPEAAGGPSVFLFPPKPKDTLMISRTPEVTCVVVDVSHEDPEVKFNWYVDGVEVHNAKTKPREEQYNSTYRVVSVLTVLHQDWLNGKEYKCKVSNKALGAPIEKTISKAKGQPREPQVCTLPPSRDELTKNQVSLSCAVKGFYPSDIAVEWESNGQPENNYKTTPPVLDSDGSFFLVSKLTVDKSRWQQGNVFSCSVMHEALHNHYTQKSLSLSPGK
light: B1 light

Experiments:
[1] = target: T1, human BCMA on myeloma cells (H929, …); test: cell-based or functional assay
[2] = target: T1, human BCMA on myeloma cells (H929, …); test: cell-based or functional assay; remark: listed apart in the source

| Binder | EC50 (pM) for redirected T-cell killing of H929 cells (LDH release) [1] [pM] | EC50 (µg/ml) for redirected T-cell killing of H929 cells (LDH release) [1] [µg/mL] | EC50 (pM) for redirected T-cell killing of U266 cells (LDH release) [2] [pM] | EC50 (µg/ml) for redirected T-cell killing of U266 cells (LDH release) [2] [µg/mL] | EC50 (pM) for redirected T-cell killing of H929 cells (LDH release), Experiment 1 [1] [pM] | EC50 (pM) for redirected T-cell killing of H929 cells (LDH release), Experiment 2 [1] [pM] | EC50 (µg/ml) for redirected T-cell killing of H929 cells (LDH release), Experiment 1 [1] [µg/mL] | EC50 (µg/ml) for redirected T-cell killing of H929 cells (LDH release), Experiment 2 [1] [µg/mL] |
| --- | --- | --- | --- | --- | --- | --- | --- | --- |
| B1 | 980 | 0.19 |  |  |  |  |  |  |
| B2 |  |  | 5700 | 1.1 | 450 | 900 | 0.08 | 0.17 |
